From the RNAGym collection of RNA variant scans (doi:10.1093/molbev/msab373)

B1: Azoarcus group I ribozyme (parent)
chain: GUGCCUUGCGCCGGGAAACCACGCAAGGGAUGGUGUCAAAUUCGGCGAAACCUAAGCGCCCGCCCGGGCGUAUGGCAACGCCGAGCCAAGCUUCGGCGCCUGCGCCGAUGAAGGUGUAGAGACUAGACGGCACCCACCUAAGGCAAACGCUAUGGUGAAGGCAUAGUCCAGGGAGUGGCGAAAGUCACACAAACCGG

Variants of: B1
Assay: reverse-splicing fitness (ratio to wild type); higher = more active; in vitro selection; Mg2+ level not given
Method in brief: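 An in vitro group I ribozyme library with randomized positions was T7-transcribed and gel-purified. In triplicate, 10 pmol RNA in EPPS pH 7.5 was reacted with 50 pmoles of a 30-nt RNA substrate for 1 h at 37 °C across several added MgCl2 levels (1–48 mM), then stopped with EDTA. Products were reverse transcribed from a substrate-complementary primer, PCR-amplified and sequenced (HiSeq 4000). Fitness is a variant's read proportion after selection over that before, normalised to wild type.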

Row | Variant | reverse-splicing fitness
1 | C82A A111C A120C A145U C169U U176A | 0.0155
2 | C82A A111C A120C A145U C169U U176G | 0.00589
3 | C82A A111C A120C A145U C169U U176C | 0.0141
4 | C82A A111C A120C A145G C150U C169U | 0.0133
5 | C82A A111C A120C A145G C150U C169A | 0.0108
6 | C82A A111C A120C A145G C150U C169G | 0.00829
7 | C82A A111C A120C U176A | 0.0134
8 | C82A A111C A120C U176G | 0.00722
9 | C82A A111C A120C U176C | 0.0216
10 | C82A A111C A120C A145U C150A C169A | 0.00876
11 | C82A A111C A120C A145U C150A C169G | 0.00824
12 | C82A A111C A120C A145U C150A C169U | 0.0124
13 | C82A A111C A120C A145G C169U U176G | 0.00652
14 | C82A A111C A120C A145G C169U U176A | 0.0165
15 | C82A A111C A120C A145G C169U U176C | 0.0138
16 | C82A A111C A120C A145U C150G U176C | 0.00803
17 | C82A A111C A120C A145U C150G U176A | 0.00604
18 | C82A A111C A120C A145U C150G U176G | 0.00392
19 | C82A A111C A120G A145C C150A C169U | 0.00671
20 | C82A A111C A120G A145C C150A C169A | 0.00794
21 | C82A A111C A120G A145C C150A C169G | 0.00754

Row | Variant | reverse-splicing fitness
22 | C82A A111C A120C A145G C150G | 0.00852
23 | C82A A111C A120C A145G C150U | 0.0241
24 | C82A A111C A120C A145G C150A | 0.0108
25 | C82A A111C A120C A145U U176A | 0.0147
26 | C82A A111C A120C A145U U176C | 0.0164
27 | C82A A111C A120C A145U U176G | 0.00692
28 | C82A A111C A120C C150U | 0.0169
29 | C82A A111C A120C C150A | 0.0114
30 | C82A A111C A120C C150G | 0.0074
31 | C82A A111C A120C A145C C150U U176C | 0.0125
32 | C82A A111C A120C A145C C150U U176G | 0.00571
33 | C82A A111C A120C A145C C150U U176A | 0.00941
34 | C82A A111C A120G A145C C150U | 0.00926
35 | C82A A111C A120G A145C C150G | 0.00724
36 | C82A A111C A120G A145C C150A | 0.00818
37 | C82A A111C A120C A145C C169U U176C | 0.0141
38 | C82A A111C A120C A145C C169U U176G | 0.00595
39 | C82A A111C A120C A145C C169U U176A | 0.0123
40 | C82A A111C A120C C150G U176G | 0.00353
41 | C82A A111C A120C C150G U176A | 0.00563
42 | C82A A111C A120C C150G U176C | 0.00863

Row | Variant | reverse-splicing fitness
43 | C82A A111C A120C A145G C150A U176G | 0.00865
44 | C82A A111C A120C A145G C150A U176C | 0.0232
45 | C82A A111C A120C A145G C150A U176A | 0.00956
46 | C82A A111C A120C A145C C150G U176G | 0.0029
47 | C82A A111C A120C A145C C150G U176C | 0.00754
48 | C82A A111C A120C A145C C150G U176A | 0.00409
49 | C82A A111C A120C A145G C169G U176C | 0.0247
50 | C82A A111C A120C A145G C169G U176G | 0.00694
51 | C82A A111C A120C A145G C169G U176A | 0.0212
52 | C82A A111C A120C A145G C150U U176G | 0.00852
53 | C82A A111C A120C A145G C150U U176A | 0.0119
54 | C82A A111C A120C A145G C150U U176C | 0.0208
55 | C82A A111C A120G A145G C150A C169G U176G | 0.00656
56 | C82A A111C A120G A145G C150A C169G U176A | 0.017
57 | C82A A111C A120G A145G C150A C169G U176C | 0.0274
58 | C82A A111C A120C A145G C150G C169G U176G | 0.00642
59 | C82A A111C A120C A145G C150G C169G U176A | 0.0109
60 | C82A A111C A120C A145G C150G C169G U176C | 0.0131
61 | C82A A111C A120C A145G C150A C169U U176C | 0.0136
62 | C82A A111C A120C A145G C150A C169U U176A | 0.0154
63 | C82A A111C A120C A145G C150A C169U U176G | 0.00795

Row | Variant | reverse-splicing fitness
64 | C82A A111C A120G A145C | 0.0129
65 | C82A A111C A120G A145G | 0.0153
66 | C82A A111C A120C A145C C169A U176C | 0.00859
67 | C82A A111C A120C A145C C169A U176A | 0.0158
68 | C82A A111C A120C A145C C169A U176G | 0.00646
69 | C82A A111C A120C A145U C150G C169G U176G | 0.00725
70 | C82A A111C A120C A145U C150G C169G U176A | 0.00819
71 | C82A A111C A120C A145U C150G C169G U176C | 0.00621
72 | C82A A111C A120G A145C C150G C169U U176C | 0.0101
73 | C82A A111C A120G A145C C150G C169U U176A | 0.0089
74 | C82A A111C A120G A145C C150G C169U U176G | 0.00551
75 | C82A A111C A120C C169A U176C | 0.0179
76 | C82A A111C A120C C169A U176G | 0.00712
77 | C82A A111C A120C C169A U176A | 0.0163
78 | C82A A111C A120C A145C C150U | 0.0124
79 | C82A A111C A120C C150U U176G | 0.0074
80 | C82A A111C A120C C150U U176A | 0.0123
81 | C82A A111C A120C C150U U176C | 0.0187
82 | C82A A111C A120G A145C C150G C169A U176A | 0.00786
83 | C82A A111C A120G A145C C150G C169A U176G | 0.00531
84 | C82A A111C A120G A145C C150G C169A U176C | 0.00612
